Test results taken from IntAct's records for PubMed 23956175.

B1: Protein disulfide isomerase Creld2 (Mus musculus), Q9CYA0 (parent)
chain: MHLLLAAAFGLLLLLPPPGAVASRKPTMCQRCRTLVDKFNQGMANTARKNFGGGNTAWEEKTLSKYEFSEIRLLEIMEGLCDSSDFECNQLLEQQEEQLEAWWQTLKKEHPNLFEWFCVHTLKACCLPGTYGPDCQECQGGSERPCSGNGYCSGDGSRQGDGSCQCHTGYKGPLCIDCTDGFFSLQRNETHSICSACDESCKTCSGPSNKDCIQCEVGWARVEDACVDVDECAAETSPCSDGQYCENVNGSYTCEDCDSTCVGCTGKGPANCKECIAGYTKESGQCTDIDECSLEEKACKRKNENCYNVPGSFVCVCPEGFEETEDACVQTAEGKVTEENPTQPPSREDL
partner: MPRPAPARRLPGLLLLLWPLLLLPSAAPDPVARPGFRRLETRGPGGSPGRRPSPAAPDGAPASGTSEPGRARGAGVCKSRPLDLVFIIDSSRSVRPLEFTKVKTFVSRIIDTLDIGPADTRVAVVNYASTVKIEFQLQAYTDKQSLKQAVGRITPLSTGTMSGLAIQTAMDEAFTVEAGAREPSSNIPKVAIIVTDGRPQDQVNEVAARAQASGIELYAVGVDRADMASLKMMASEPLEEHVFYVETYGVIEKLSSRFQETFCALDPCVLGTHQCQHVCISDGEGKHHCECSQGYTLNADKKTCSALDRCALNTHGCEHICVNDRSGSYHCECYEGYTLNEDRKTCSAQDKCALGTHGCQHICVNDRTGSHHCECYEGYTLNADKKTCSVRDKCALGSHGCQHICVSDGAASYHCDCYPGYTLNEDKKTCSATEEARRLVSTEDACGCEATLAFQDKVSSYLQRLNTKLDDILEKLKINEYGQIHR

Variants of: B1
Conditions: with matn3_human MATN3, O15232

Variant	effect of a mutation on the interaction
C32A	causing an interaction
